Experimental data: patent US20110086806A1 (published 2011)
Positions count from the first letter of the chain named.

B1: 105-08-1C6 ATRIMER complex (designed binder)
chain: EPPTQKPKKIVNAKKDVVNTKMFEELKSRLDTLAQEVALLKEQQALQTVCLKGTKVHMKCFLAFTQTKTFHEASEDCISRGGTLSTPQTGSENDALYEYLRQSVGNEAEIWLGLNGSALTDTWVDMTGARIAYKNWETEITAQPDGGFGYFGENCAVLSGAANGKWFDKRCRDQLPYICQFGIV
B2: 105-08-1G2 ATRIMER complex (designed binder)
chain: B1 chain with A118S, L119K, D121N, F148W
B3: 105-08-2H11 ATRIMER complex (designed binder)
chain: B1 chain with A118P, L119R, F148W
notes: not shown: C-terminal tag: His/Myc (pANA4) or HA-StrepII (pANA10)
B4: 105-08-2D2 ATRIMER complex (designed binder)
chain: B1 chain with L119R, D121G
B5: 105-78-2E6 ATRIMER complex (designed binder)
chain: B1 chain with A118L, L119R, D121N, Y150V
B6: 105-08-2B3 ATRIMER complex (designed binder, not shown: small tags and cut ends)
chain: B1 chain with L119I, D121N, F148W
B7: 105-20-1A6 ATRIMER complex (designed binder)
chain: B1 chain with L119K, D121G, F148W
B8: 105-20-2C7 ATRIMER complex (designed binder, not shown: small tags and cut ends)
chain: B1 chain with A118V, L119T
B9: 105-08-2H3 ATRIMER complex (designed binder)
chain: B1 chain with A118S, D121N, F148W
modifications: ATRIMER complex: homotrimer of three copies of this chain, joined by the tetranectin coiled coil
notes: not shown: C-terminal tag: Myc/His (pANA4) or HA-StrepII (pANA10)
B10: 105-20-2F10 ATRIMER complex (designed binder)
chain: B1 chain with L119R
notes: as for B3
B11: 105-20-1B4 ATRIMER complex (designed binder)
chain: B1 chain with A118S, L119R, D121N, F148W
modifications: ATRIMER complex: homotrimer of three copies of this chain, joined by the tetranectin coiled coil
notes: as for B9
B12: 105-08-1G9 ATRIMER complex (designed binder)
chain: B1 chain with A118P, L119K
B13: 105-08-2H12 ATRIMER complex (designed binder, not shown: small tags and cut ends)
chain: B1 chain with A118P, L119R, D121E
B14: 105-08-2C4 ATRIMER complex (designed binder)
chain: B1 chain with A118L, D121N
modifications: ATRIMER complex: homotrimer of three copies of this chain, joined by the tetranectin coiled coil
notes: as for B9
B15: 105-08-2C12 ATRIMER complex (designed binder, not shown: small tags and cut ends)
chain: B1 chain with A118Q, L119R
B16: 105-08-2G1 ATRIMER complex (designed binder)
chain: B1 chain with A118P, L119K, D121H
B17: 105-08-1G12 ATRIMER complex (designed binder)
chain: B1 chain with A118L, L119R, D121G, F148W
modifications: Homotrimer (ATRIMER complex) of the one chain given.
B18: 105-08-1D12 ATRIMER complex (designed binder)
chain: B1 chain with A118V
notes: as for B3
B19: 105-08-1C10 ATRIMER complex (designed binder)
chain: B1 chain with A118S, L119V, D121N, F148W
B20: 105-08-2C8 ATRIMER complex (designed binder)
chain: B1 chain with A118W, F148W
B21: 105-08-2C11 ATRIMER complex (designed binder)
chain: B1 chain with A118L, L119K, D121Q, F148W
B22: 105-61-4G3 ATRIMER complex (designed binder)
chain: B1 chain with A118L, L119R, Y150V
notes: also called 61-p4G3
B23: 105-20-2C11 ATRIMER complex (designed binder)
chain: B1 chain with A118V, L119R, F148W
notes: as for B3
B24: 105-08-2H4 ATRIMER complex (designed binder)
chain: B1 chain with A118V, L119R
B25: 105-08-2A1 ATRIMER complex (designed binder)
chain: B1 chain with A118M, L119R, F148W
B26: 105-08-1C11 ATRIMER complex (designed binder)
chain: B1 chain with A118S, L119R
modifications: ATRIMER complex: homotrimer of three copies of this chain, joined by the tetranectin coiled coil
notes: as for B9
B27: 105-78-2D1 ATRIMER complex (designed binder)
chain: B1 chain with A118L, L119R, D121H, Y150V
B28: 105-08-2G6 ATRIMER complex (designed binder)
chain: B1 chain with A118L, F148W
B29: 105-59-3A5 ATRIMER complex (designed binder)
chain: B1 chain with A118L, D121N, Y150V
modifications: Homotrimer of three identical chains (ATRIMER complex); one chain is given.
notes: as for B3
B30: 105-08-2C6 ATRIMER complex (designed binder)
chain: B1 chain with A118Q, L119R, F148W
B31: 105-08-2G2 ATRIMER complex (designed binder)
chain: B1 chain with L119I, F148W
B32: 105-61-4G5 ATRIMER complex (designed binder)
chain: B1 chain with A118P, D121N, Y150V
B33: 105-20-2C4a ATRIMER complex (designed binder)
chain: B1 chain with L119K, F148W
modifications: ATRIMER complex: homotrimer of three copies of this chain, joined by the tetranectin coiled coil
notes: as for B9
B34: 105-08-1D2 ATRIMER complex (designed binder)
chain: B1 chain with A118P, L119V
notes: as for B3
B35: 105-59-3B5 ATRIMER complex (designed binder)
chain: B1 chain with A118P, L119I, Y150V
B36: 105-08-2C1 ATRIMER complex (designed binder, not shown: small tags and cut ends)
chain: B1 chain with A118S, F148W
B37: 105-08-1D10 ATRIMER complex (designed binder)
chain: B1 chain with L119R, D121G, F148W
B38: 105-08-2H6 ATRIMER complex (designed binder)
chain: B1 chain with A118P, L119V, D121G
B39: 105-20-2G5 ATRIMER complex (designed binder)
chain: B1 chain with A118R, L119R, F148W
B40: 105-20-2C4b ATRIMER complex (designed binder)
chain: B1 chain with A118V, L119K, F148W
B41: 105-08-2E12 ATRIMER complex (designed binder)
chain: B1 chain with A118G, F148W
B42: 105-08-2G4 ATRIMER complex (designed binder)
chain: B1 chain with A118P, L119R, D121G
B43: 105-08-2H2 ATRIMER complex (designed binder)
chain: B1 chain with A118P, L119T, F148W
B44: 105-08-1C9 ATRIMER complex (designed binder)
chain: B1 chain with A118T
B45: 105-08-2H10 ATRIMER complex (designed binder)
chain: B1 chain with A118N, L119H
B46: 105-08-1D1 ATRIMER complex (designed binder, not shown: small tags and cut ends)
chain: B1 chain with F148W
B47: 105-08-2C9 ATRIMER complex (designed binder)
chain: B1 chain with A118T, D121N, F148W

What follows are binders tested against T1, recombinant human IL-23R/Fc chimera (R&D Systems) (human, UniProt Q5VWK5 24-355) (assay: competition ELISA vs IL-23).
T1 construct: Bought; also called rhIL23RFc
T1 sequence (looked up): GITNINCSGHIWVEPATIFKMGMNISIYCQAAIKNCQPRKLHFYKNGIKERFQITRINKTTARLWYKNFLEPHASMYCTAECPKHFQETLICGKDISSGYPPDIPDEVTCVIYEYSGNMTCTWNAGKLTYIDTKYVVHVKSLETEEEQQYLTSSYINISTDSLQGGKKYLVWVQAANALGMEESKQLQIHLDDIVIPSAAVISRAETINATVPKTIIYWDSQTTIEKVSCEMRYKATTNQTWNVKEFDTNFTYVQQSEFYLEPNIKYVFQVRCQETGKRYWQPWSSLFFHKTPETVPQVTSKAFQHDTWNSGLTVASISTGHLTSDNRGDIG
Description: Assays were performed generally as follows. Individual wells in Immulon HB2 plates were incubated overnight at 4° C. with 100 μL PBS containing 100 ng of an anti-human IgG Fc (R&D MAB 110 clone 97924). Plates were washed five times with PBS/0.05% Tween 20, and wells were incubated for 1.5 h at RT with 100 μL each of PBS containing 50 ng of recombinant human IL-23R/Fc. […] Competitor was included at a final concentration of 1 μg/mL. After incubation, plates were washed as described and wells were incubated for 40 min at RT with 100 μL each of PBS containing a 1:5000 dilution of streptavidin-HRP conjugate (Pierce catalog no. 21130). After washing, wells were incubated with 100 μL each of TMB (BioFX Lab catalog no. TMBH-1000-0) for up to 30 min at RT. Reactions were stopped with an equal volume of 0.2 M sulfuric acid.

| Binder | Ratio IC50 to 056-53.H4E IC50 |
| --- | --- |
| B1 | 2 |
| B2 | 5.5 |
| B3 | 4.3 |
| B4 | 4.1 |
| B5 | 1 |
| B6 | 3.4 |
| B7 | 6.6 |
| B8 | 3.5 |
| B9 | 2.9 |
| B10 | 4.2 |
| B11 | 3 |
| B12 | 2.4 |
| B13 | 3.3 |
| B14 | 2.9 |
| B15 | 3.3 |
| B16 | 2.2 |
| B17 | 13.2 |
| B18 | 4.6 |
| B19 | 5 |
| B20 | 8.4 |
| B21 | 9.1 |
| B22 | 0.8 |
| B23 | 4.8 |
| B24 | 5 |

| Binder | Ratio IC50 to 056-53.H4E IC50 |
| --- | --- |
| B25 | 5 |
| B26 | 2.8 |
| B27 | 1.3 |
| B28 | 5.2 |
| B29 | 1.2 |
| B30 | 3.6 |
| B31 | 3.8 |
| B32 | 1 |
| B33 | 2.9 |
| B34 | 4.3 |
| B35 | 0.8 |
| B36 | 3.6 |
| B37 | 5.5 |
| B38 | 2 |
| B39 | 5.3 |
| B40 | 4.2 |
| B41 | 9.1 |
| B42 | 2.5 |
| B43 | 4 |
| B44 | 7.4 |
| B45 | 6.5 |
| B46 | 3.6 |
| B47 | 5.3 |
